For orientation: Ki means a dissociation constant, usually derived from enzyme kinetics or from competition with a known ligand. A lower Ki goes with higher affinity.

Experimental findings from US20210032299A1 (Eli Lilly, published 2021) are described below.

Starred links: 1 amine or outer side, 2 acyl side, 3 side chain; linkers in the order of their positions; H or OH if unused. Non-standard residues stand in square brackets, D forms with d. Groups on a side chain read outwards from the residue. No end group written: not given here. *: point of attachment. C20 diacid = O=C(O)CCCCCCCCCCCCCCCCCCC(=O)*; γGlu = O=C(O)[C@H](CCC(=O)[*:2])N[*:1]; 4Pal = N[C@@H](Cc1ccncc1)C(=O)O; αMeL = CC(C)C[C@](C)(N)C(=O)O; AEEA = NCCOCCOCC(=O)O; Aib = CC(C)(N)C(=O)O

The target of assay [1] is T1, human glucose-dependent insulinotropic polypeptide (GIP) receptor (human, UniProt P48546 22-466).
T1 construct: whole, on cells; Assayed as crude membranes of stably transfected CHO cells; also called hGIPR; human GIP receptor
T1 sequence (looked up): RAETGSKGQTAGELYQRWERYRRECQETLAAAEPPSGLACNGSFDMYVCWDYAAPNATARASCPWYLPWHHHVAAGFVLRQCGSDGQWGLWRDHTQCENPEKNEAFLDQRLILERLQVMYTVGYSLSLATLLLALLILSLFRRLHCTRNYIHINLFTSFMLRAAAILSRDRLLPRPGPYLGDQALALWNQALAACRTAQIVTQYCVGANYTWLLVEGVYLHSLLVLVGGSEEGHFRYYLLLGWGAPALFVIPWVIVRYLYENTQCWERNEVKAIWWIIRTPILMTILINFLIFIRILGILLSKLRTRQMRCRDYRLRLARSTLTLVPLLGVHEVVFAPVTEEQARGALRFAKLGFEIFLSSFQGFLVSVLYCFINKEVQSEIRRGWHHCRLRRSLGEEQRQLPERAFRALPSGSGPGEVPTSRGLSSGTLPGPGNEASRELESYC
Kind of assay: SPA, displacement of [125I]-GIP from hGIPR membranes, 0.1% bacitracin. For orientation: Displacement assays read how much labelled ligand stays bound in the presence of the test substance.

Another assay addresses T2, human glucagon receptor (human, UniProt P47871 26-477).
T2 construct: whole, on cells; Assayed as crude membranes of stably transfected HEK293 cells; also called hGcgR; GcgR
Kind of assay: SPA, displacement of [125I]-Gcg from hGcgR membranes, 0.1% bacitracin. In short, it runs like this:
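Binding buffer: 25 mM HEPES pH 7.4, 2.5 mM CaCl₂, 1 mM MgCl₂, 0.003% Tween-20, protease inhibitors without EDTA. Counted by scintillation after 12 h incubation/settling at room temperature. Four-parameter nonlinear fit; Kᵢ given as geometric mean ± SEM of independent replicates run on different days.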

The target in another assay is T3, human GLP-1 receptor (human, UniProt P43220 24-463).
T3 construct: whole, on cells; Assayed as crude membranes of stably transfected HEK293 cells; also called hGLP1R; hGLP-1R
Kind of assay: SPA, displacement of [125I]-GLP-1 from hGLP-1R membranes, 0.1% bacitracin. In short, it runs like this:
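Binding buffer: 25 mM HEPES pH 7.4, 2.5 mM CaCl₂, 1 mM MgCl₂, 0.1% bacitracin, 0.003% Tween-20, protease inhibitors without EDTA. Four-parameter nonlinear regression; Kᵢ given as geometric mean ± SEM, n = independent replicates run on different days.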

T2 sequence (P47871 26-477): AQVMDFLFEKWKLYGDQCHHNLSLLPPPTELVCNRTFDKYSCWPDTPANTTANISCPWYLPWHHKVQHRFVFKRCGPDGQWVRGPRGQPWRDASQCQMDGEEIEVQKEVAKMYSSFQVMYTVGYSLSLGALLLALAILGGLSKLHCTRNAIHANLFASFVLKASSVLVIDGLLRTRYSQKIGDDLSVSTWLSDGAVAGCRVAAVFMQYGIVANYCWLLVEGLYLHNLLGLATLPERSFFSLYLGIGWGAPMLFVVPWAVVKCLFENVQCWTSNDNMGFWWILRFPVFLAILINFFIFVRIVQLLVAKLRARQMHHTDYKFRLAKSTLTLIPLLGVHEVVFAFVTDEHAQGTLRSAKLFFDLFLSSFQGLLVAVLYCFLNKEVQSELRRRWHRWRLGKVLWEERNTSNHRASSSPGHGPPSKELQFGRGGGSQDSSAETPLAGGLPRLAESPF

B1: Example 78 (peptide)
peptide: Y[Aib]EGTFISDYSI[αMeL]LDKK([AEEA-AEEA-γGlu-C20 diacid])HQ[Aib]DFVE[4Pal]LLAAGPSSGAPPPS-NH2
modifications: N-terminus assumed
SMILES: CC[C@H](C)[C@H](NC(=O)[C@H](Cc1ccccc1)NC(=O)[C@@H](NC(=O)CNC(=O)[C@H](CCC(=O)O)NC(=O)C(C)(C)NC(=O)[C@@H](N)Cc1ccc(O)cc1)[C@@H](C)O)C(=O)N[C@@H](CO)C(=O)N[C@@H](CC(=O)O)C(=O)N[C@@H](Cc1ccc(O)cc1)C(=O)N[C@@H](CO)C(=O)N[C@H](C(=O)N[C@@](C)(CC(C)C)C(=O)N[C@@H](CC(C)C)C(=O)N[C@@H](CC(=O)O)C(=O)N[C@@H](CCCCN)C(=O)N[C@@H](CCCCNC(=O)COCCOCCNC(=O)COCCOCCNC(=O)CC[C@H](NC(=O)CCCCCCCCCCCCCCCCCCC(=O)O)C(=O)O)C(=O)N[C@@H](Cc1c[nH]cn1)C(=O)N[C@@H](CCC(N)=O)C(=O)NC(C)(C)C(=O)N[C@@H](CC(=O)O)C(=O)N[C@@H](Cc1ccccc1)C(=O)N[C@H](C(=O)N[C@@H](CCC(=O)O)C(=O)N[C@@H](Cc1ccncc1)C(=O)N[C@@H](CC(C)C)C(=O)N[C@@H](CC(C)C)C(=O)N[C@@H](C)C(=O)N[C@@H](C)C(=O)NCC(=O)N1CCC[C@H]1C(=O)N[C@@H](CO)C(=O)N[C@@H](CO)C(=O)NCC(=O)N[C@@H](C)C(=O)N1CCC[C@H]1C(=O)N1CCC[C@H]1C(=O)N1CCC[C@H]1C(=O)N[C@@H](CO)C(N)=O)C(C)C)[C@@H](C)CC
B1: the Ki was 0.0236 nM in assay [1], 505 nM with human glucagon receptor and 394 nM with human GLP-1 receptor.

B2: Example 79 (peptide)
peptide: Y[Aib]EGTFISDYSI[αMeL]LDKK([AEEA-AEEA-γGlu-C20 diacid])HQ[Aib]DFVE[4Pal]LLAQGPSSGAPPPS-NH2
modifications: N-terminus assumed
SMILES: CC[C@H](C)[C@H](NC(=O)[C@H](Cc1ccccc1)NC(=O)[C@@H](NC(=O)CNC(=O)[C@H](CCC(=O)O)NC(=O)C(C)(C)NC(=O)[C@@H](N)Cc1ccc(O)cc1)[C@@H](C)O)C(=O)N[C@@H](CO)C(=O)N[C@@H](CC(=O)O)C(=O)N[C@@H](Cc1ccc(O)cc1)C(=O)N[C@@H](CO)C(=O)N[C@H](C(=O)N[C@@](C)(CC(C)C)C(=O)N[C@@H](CC(C)C)C(=O)N[C@@H](CC(=O)O)C(=O)N[C@@H](CCCCN)C(=O)N[C@@H](CCCCNC(=O)COCCOCCNC(=O)COCCOCCNC(=O)CC[C@H](NC(=O)CCCCCCCCCCCCCCCCCCC(=O)O)C(=O)O)C(=O)N[C@@H](Cc1c[nH]cn1)C(=O)N[C@@H](CCC(N)=O)C(=O)NC(C)(C)C(=O)N[C@@H](CC(=O)O)C(=O)N[C@@H](Cc1ccccc1)C(=O)N[C@H](C(=O)N[C@@H](CCC(=O)O)C(=O)N[C@@H](Cc1ccncc1)C(=O)N[C@@H](CC(C)C)C(=O)N[C@@H](CC(C)C)C(=O)N[C@@H](C)C(=O)N[C@@H](CCC(N)=O)C(=O)NCC(=O)N1CCC[C@H]1C(=O)N[C@@H](CO)C(=O)N[C@@H](CO)C(=O)NCC(=O)N[C@@H](C)C(=O)N1CCC[C@H]1C(=O)N1CCC[C@H]1C(=O)N1CCC[C@H]1C(=O)N[C@@H](CO)C(N)=O)C(C)C)[C@@H](C)CC
For the molecule B2, the Ki in assay [1] came to 0.0229 nM; with human glucagon receptor, 888 nM; in the assay with human GLP-1 receptor, 486 nM.

B3: Example 85 (peptide)
peptide: Y[Aib]EGTFISDYSI[αMeL]LDEK([AEEA-AEEA-γGlu-C20 diacid])HQ[Aib]DFVE[4Pal]LLAAGPSSGAPPPS-NH2
modifications: N-terminus assumed
SMILES: CC[C@H](C)[C@H](NC(=O)[C@H](Cc1ccccc1)NC(=O)[C@@H](NC(=O)CNC(=O)[C@H](CCC(=O)O)NC(=O)C(C)(C)NC(=O)[C@@H](N)Cc1ccc(O)cc1)[C@@H](C)O)C(=O)N[C@@H](CO)C(=O)N[C@@H](CC(=O)O)C(=O)N[C@@H](Cc1ccc(O)cc1)C(=O)N[C@@H](CO)C(=O)N[C@H](C(=O)N[C@@](C)(CC(C)C)C(=O)N[C@@H](CC(C)C)C(=O)N[C@@H](CC(=O)O)C(=O)N[C@@H](CCC(=O)O)C(=O)N[C@@H](CCCCNC(=O)COCCOCCNC(=O)COCCOCCNC(=O)CC[C@H](NC(=O)CCCCCCCCCCCCCCCCCCC(=O)O)C(=O)O)C(=O)N[C@@H](Cc1c[nH]cn1)C(=O)N[C@@H](CCC(N)=O)C(=O)NC(C)(C)C(=O)N[C@@H](CC(=O)O)C(=O)N[C@@H](Cc1ccccc1)C(=O)N[C@H](C(=O)N[C@@H](CCC(=O)O)C(=O)N[C@@H](Cc1ccncc1)C(=O)N[C@@H](CC(C)C)C(=O)N[C@@H](CC(C)C)C(=O)N[C@@H](C)C(=O)N[C@@H](C)C(=O)NCC(=O)N1CCC[C@H]1C(=O)N[C@@H](CO)C(=O)N[C@@H](CO)C(=O)NCC(=O)N[C@@H](C)C(=O)N1CCC[C@H]1C(=O)N1CCC[C@H]1C(=O)N1CCC[C@H]1C(=O)N[C@@H](CO)C(N)=O)C(C)C)[C@@H](C)CC
In the case of B3, the results for the Ki (in assay [1]; in the assay with human glucagon receptor; in the assay with human GLP-1 receptor) were 0.0529 nM, 800 nM and 220 nM, respectively.

B4: Example 86 (peptide)
peptide: Y[Aib]EGTFISDYSI[αMeL]LDEK([AEEA-AEEA-γGlu-C20 diacid])HQ[Aib]DFVE[4Pal]LLAGGPSSGAPPPS-NH2
modifications: N-terminus assumed
SMILES: CC[C@H](C)[C@H](NC(=O)[C@H](Cc1ccccc1)NC(=O)[C@@H](NC(=O)CNC(=O)[C@H](CCC(=O)O)NC(=O)C(C)(C)NC(=O)[C@@H](N)Cc1ccc(O)cc1)[C@@H](C)O)C(=O)N[C@@H](CO)C(=O)N[C@@H](CC(=O)O)C(=O)N[C@@H](Cc1ccc(O)cc1)C(=O)N[C@@H](CO)C(=O)N[C@H](C(=O)N[C@@](C)(CC(C)C)C(=O)N[C@@H](CC(C)C)C(=O)N[C@@H](CC(=O)O)C(=O)N[C@@H](CCC(=O)O)C(=O)N[C@@H](CCCCNC(=O)COCCOCCNC(=O)COCCOCCNC(=O)CC[C@H](NC(=O)CCCCCCCCCCCCCCCCCCC(=O)O)C(=O)O)C(=O)N[C@@H](Cc1c[nH]cn1)C(=O)N[C@@H](CCC(N)=O)C(=O)NC(C)(C)C(=O)N[C@@H](CC(=O)O)C(=O)N[C@@H](Cc1ccccc1)C(=O)N[C@H](C(=O)N[C@@H](CCC(=O)O)C(=O)N[C@@H](Cc1ccncc1)C(=O)N[C@@H](CC(C)C)C(=O)N[C@@H](CC(C)C)C(=O)N[C@@H](C)C(=O)NCC(=O)NCC(=O)N1CCC[C@H]1C(=O)N[C@@H](CO)C(=O)N[C@@H](CO)C(=O)NCC(=O)N[C@@H](C)C(=O)N1CCC[C@H]1C(=O)N1CCC[C@H]1C(=O)N1CCC[C@H]1C(=O)N[C@@H](CO)C(N)=O)C(C)C)[C@@H](C)CC
For the molecule B4, the Ki in assay [1] worked out at 0.0533 nM; with human glucagon receptor, 462 nM; with human GLP-1 receptor, 108 nM.
